The results in this text go back to patent publication US20240239878A1 (SHANGHAI QILU PHARMACEUTICAL RESEARCH AND DEVELOPMENT CENTRE, published 2024).

Where a chain is given by its changes, count along the chain named. Read-outs that look alike come from different tables or passages of the source.

The target of assay [1] is T1, human DLL3 on SHP-77 cells (human, UniProt Q9NYJ7 27-618).
T1 construct: also called DLL3-expressing cells (SHP-77)
T1 sequence: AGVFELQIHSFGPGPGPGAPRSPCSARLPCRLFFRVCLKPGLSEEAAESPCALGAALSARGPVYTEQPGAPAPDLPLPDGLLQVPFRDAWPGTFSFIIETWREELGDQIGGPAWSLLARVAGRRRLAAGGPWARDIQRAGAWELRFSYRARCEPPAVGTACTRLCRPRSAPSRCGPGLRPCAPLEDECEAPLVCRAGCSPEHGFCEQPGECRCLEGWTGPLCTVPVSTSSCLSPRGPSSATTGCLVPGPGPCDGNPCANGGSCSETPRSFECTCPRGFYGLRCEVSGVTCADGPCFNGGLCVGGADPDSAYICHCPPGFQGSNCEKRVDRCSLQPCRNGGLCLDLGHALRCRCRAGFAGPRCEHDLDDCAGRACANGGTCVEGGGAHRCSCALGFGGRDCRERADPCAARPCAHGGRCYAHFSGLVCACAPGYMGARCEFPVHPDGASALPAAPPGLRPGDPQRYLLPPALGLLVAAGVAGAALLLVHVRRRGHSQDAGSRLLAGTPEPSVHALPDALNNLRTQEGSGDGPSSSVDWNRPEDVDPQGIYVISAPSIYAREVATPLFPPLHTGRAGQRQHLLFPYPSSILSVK
The experiment in a line: flow cytometry, SHP-77 cells. Here is the method: SHP-77 and HEK293-cyno DLL3 cells were cultured. The culture medium for SHP-77 cells were RPMI1640+10% FBS, and the culture medium for HEK293 cyno DLL3 cells was DMEM+10% FBS+200 μg/ml Hygromycin. The cells were cultured in a T75 cell culture flask at a 37° C. 5% CO₂ incubator. When using cells, they are washed with sterile DPBS, digested with 0.25% trypsin EDTA for about 5 minutes, and then stopped with a complete medium.
(§1) The digested cells were centrifuged at 1000 rpm for 5 min at room temperature. The supernatant was discarded and the cells were resuspended in 100 μL of 1% BSA (in PBS). The cells were counted and adjusted to a cell density of 1E6/m. The dilute cells were seeded in a 96-well round-bottom culture plate (corning 3799), and centrifuged at 1500 rpm for 5 min at 4° C. The supernatant was discarded and the cells were stored at 4° C. until use. Antibody samples to be tested were diluted with 1% BSA (in PBS) at a starting concentration of 100 nM, downwards by a 10-fold gradient for 7 concentrations. The cells were resuspended with the diluted antibody at 100 μL/well and incubated for 1 hour at 4° C. The cells were centrifuged at 1500 rpm for 5 minutes at 4° C. and the supernatant was discarded. The cells were resuspended and washed with 160 μL of 1% BSA (in PBS), centrifuged at 1500 rpm for 5 minutes at 4° C. The supernatant was discarded. The secondary antibody (goat anti human IgG Fc PE) was diluted 1:200 with 1% BSA (in PBS) according to the manufacturer's instructions and the cells were resuspended with the diluted secondary antibody. 100 µL/well, and incubated for 0.5 h at 4° C. The cells were centrifuged at 1500 rpm for 5 minutes at 4° C. and the supernatant was discarded. The cells were resuspended and washed with 160 μL of 1% BSA (in PBS), centrifuged at 1500 rpm for 5 minutes at 4° C. The supernatant was discarded. The cells were resuspended in 100 μL of 1% BSA (in PBS), and filtered across a 300 mesh gauze. The mean fluorescence intensity of the PE channels was measured by flow cytometry.
(§2) The analyzed mean fluorescence intensity was imported into Graphpad to analyze the median-binding concentration (hereinafter referred to as EC50) of antibody and cell and the top mean fluorescence intensity (Top MFI).
(In general: Flow cytometry measures light scatter and fluorescence of single cells or particles in a stream.)

For assay [2], the target named is T1, human DLL3 on SHP-77 cells. Nature of the assay: flow cytometry, SHP-77 cells. As to the method: (§3) SHP-77 and HEK293-cyno DLL3 cells were cultured. The culture medium for SHP-77 cells were RPMI1640+10% FBS, and the culture medium for HEK293 cyno DLL3 cells were DMEM+10% FBS+200 μg/ml Hygromycin. The cells were cultured in a T75 cell culture flask at a 37° C. 5% CO₂ incubator. When using cells, they are washed with sterile DPBS, digested with 0.25% trypsin EDTA for about 5 minutes, and then stopped with a complete medium.
as §1, with “antibody,” for “antibody.”, “μL/well,” for “µL/well,”
as §2
This is another data set of the same source.

In assay [3] the target is T2, Cynomolgus monkey DLL3 on HEK293 cells (HEK293-cyno DLL3) (Cynomolgus monkey, UniProt Q9NYJ7 27-618 (human entry)).
T2 chain: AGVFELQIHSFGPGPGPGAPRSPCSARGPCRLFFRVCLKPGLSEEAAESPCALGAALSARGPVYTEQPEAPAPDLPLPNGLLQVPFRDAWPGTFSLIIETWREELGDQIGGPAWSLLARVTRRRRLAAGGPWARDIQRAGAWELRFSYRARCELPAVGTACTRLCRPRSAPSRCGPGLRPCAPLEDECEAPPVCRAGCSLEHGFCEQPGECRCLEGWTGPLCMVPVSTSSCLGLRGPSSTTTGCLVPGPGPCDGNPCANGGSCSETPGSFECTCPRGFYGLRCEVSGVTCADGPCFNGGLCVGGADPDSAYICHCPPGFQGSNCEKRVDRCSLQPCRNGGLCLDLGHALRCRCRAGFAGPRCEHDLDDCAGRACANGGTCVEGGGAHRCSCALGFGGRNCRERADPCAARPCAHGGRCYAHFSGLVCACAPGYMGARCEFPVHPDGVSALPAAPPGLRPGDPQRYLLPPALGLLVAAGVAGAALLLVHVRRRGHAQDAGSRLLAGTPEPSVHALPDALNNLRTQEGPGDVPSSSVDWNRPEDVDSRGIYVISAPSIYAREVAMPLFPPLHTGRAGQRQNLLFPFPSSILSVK
Nature of the assay: flow cytometry, HEK293-cyno DLL3 cells. Here is the method:
as §3
as §1, with “antibody,” for “antibody.”, “μL/well,” for “µL/well,”
as §2

The target of assay [4] is T1, human DLL3 on SHP-77 cells. The experiment in a line: flow cytometry, SHP-77 cells. Here is the method: SHP-77 cells were cultured. The culture medium for SHP-77 cells was RPMI1640+10% FBS. The cells were cultured in a T75 cell culture flask at a 37° C. 5% CO₂ incubator. When using cells, they are washed with sterile DPBS, digested with 0.25% trypsin EDTA for about 5 minutes, and then stopped with a complete medium.
as §1, with “plated” for “seeded”, “antibody,” for “antibody.”
as §2
The source holds these as a separate data set.

B1: 47E12D12-1 mouse hybridoma-derived anti-DLL3 chimeric antibody (antibody, V domains shown)
VH: EVQLVESGGGLVKPGGSLKLSCAASGFTFSDYGMHWVRQAPEKGLEWVAYISSGSSTIYYADTVKGRFTISRDNAKNTLFLQMTSLRSEDTAMYYCARNSRGFAYWGQGTLVTVSA
VL: DIVLTQSPAIMSASPGEKVTMTCSASSSVSYMYWYQQKPGSSPRLLIYDTSNLASGVPVRFSGSGSGTSYSLTISRMEAEDAATYYCQQWSSYPRTFGGGTKLEIK
The term EC50 denotes the concentration at which the effect is half-maximal. For the molecule B1, in assay [1], the 50% effective concentration (EC50) came to 1.45 nM and the “Top MFI” value is 178 MFI.

B2: 47E12D12-2 mouse hybridoma-derived anti-DLL3 chimeric antibody (antibody, V domains shown)
VH: B1 VH
VL: DIVLIQSPTIMSASPGEKVTMTCSASSSVSSMHWYQQKSGTSPKRWIYDTSKLASGVPARFSGSGSGTSYSLTISTMEAEDAATYYCQQWNSYHLTFGAGTKLELK
As for B2, in assay [1], the EC50 amounted to 69.3 nM and the “Top MFI” value is 455 MFI.

B3: hDLL3-12-1 camelid-derived humanized anti-DLL3 antibody (antibody, V domains shown)
VH: QVQLVESGGGVVQPGRSLRLSCAASGFAFSSYDMHWVRQAPGKGLEWVSSISRDGRGPRYADSVKGRFTISRDNSKNTLYLQMNSLRAEDTAVYYCSKGYPIMGGTTQGTLVTVSS
For B3, in assay [2], the EC50 turned out to be 0.052 nM and the “Top MFI” value stood at 690 MFI. Besides, in assay [3], it took 2.36 nM to reach a half-maximal effect (EC50) and the “Top MFI” value came to 178 MFI.

B4: hDLL3-12-2 camelid-derived humanized anti-DLL3 antibody (antibody, V domains shown)
VH: B3 VH with G44D, L45F
Consider B4, for which, in assay [2], the midpoint of the response, the EC50, lay at 0.081 nM and the “Top MFI” value was 804 MFI. In assay [3], a half-maximal response (EC50) required 1.35 nM and the “Top MFI” value stood at 190 MFI.

B5: 39E2D11-2 mouse hybridoma-derived anti-DLL3 chimeric antibody (antibody, V domains shown)
VH: QVQLKQSGPGLVQPSQSLSITCTVSGFSLTSYGVHWVRQSPGKGLEWLGVIWSGGSTDYNAAFISRLSISKDNPKSQVFFKMNSLQADDTAIYYCARENYYGNSLWFFDVWGTGTTVTVSS
VL: DIVLTQSPATLSVTPGDSVSLSCRASQSINNNLHWYQQKSHESPRLLIKYVSQSISGIPSRFSGSGSGTDFTLTINSVETEDFGMYFCQQTNSWPLTFGAGTKLELK
Consider B5, for which, in assay [1], the response was half-maximal at 8.63 nM (EC50) and the “Top MFI” value came to 193 MFI.

B6: 40G3D1 mouse hybridoma-derived anti-DLL3 chimeric antibody (antibody, V domains shown)
VH: QVQLQQSGAELVKPGASVKISCKASGYAFSSQWMNWVKQRPGKGLEWIGQIYPGNGDTNYNGKFKGKATLTADKSSSTAYIQLSSLTSEDSAVYFCARWFAYWGQGTLVTVSA
VL: B5 VL with A9V, I29V, N30R, T74S, M85V, T91S
On to B6, for which the “Top MFI” value in assay [1] amounted to 369 MFI.

B7: hDLL3-276 camelid-derived humanized anti-DLL3 antibody (antibody, V domains shown)
VH: QVQLVESGGGVVQPGGSLRLSCAASGSTASTTYMGWFRQAPGKGREGVAIIYTARDNPWYADSVKGRFTISRDNSKNTLYLQMNSLRAEDTAVYYCAATLANPTRTAWGQGTLVTVSS
Regarding B7, in assay [2], the EC50 amounted to 0.389 nM and the “Top MFI” value was 622 MFI. In assay [3], the EC50 was 1.01 nM and the “Top MFI” value came out at 148 MFI.

B8: H1-39E2D11 mouse hybridoma-derived humanized anti-DLL3 antibody (antibody, V domains shown)
VH: QVQLVQSGAEVKKPGASVKVSCKASGYTFISYWITWVRQAPGQGLEWMGDIYPGSGSTTNYNEKFKSRVTMTRDTSTSTVYMELSSLRSEDTAVYYCARETTVGGAYAMDYWGQGTLVTVSS
VL: EIVLTQSPATLSLSPGERATLSCRASQSINNNLHWYQQKPGQAPRLLIYYVSQSISGIPARFSGSGSGTDFTLTISSLEPEDFAVYYCQQTNSWPLTFGGGTKLEIK
Regarding B8, in assay [4], the EC50 was 2.13 nM and the “Top MFI” value was 1430 MFI.
